Test results: paper PMC5686073, “Suppression of SRCAP chromatin remodelling complex and restriction of lymphoid lineage commitment by Pcid2” (Nature Communications, 2017)

Molecular target: T1, His-PCID2 (PCI domain-containing protein 2) (mouse, UniProt Q8BFV2 1-399)
T1 construct: PCID2 (PCI domain-containing protein 2), mouse full-length Pcid2 subcloned into pETDuet; the plasmid section names only the mouse construct; also called His-tagged PCID2; recombinant PCID2 protein; source: E. coli, purified (Ni-NTA His-resins)
T1 sequence (Q8BFV2 whole entry, the tested form may be a part): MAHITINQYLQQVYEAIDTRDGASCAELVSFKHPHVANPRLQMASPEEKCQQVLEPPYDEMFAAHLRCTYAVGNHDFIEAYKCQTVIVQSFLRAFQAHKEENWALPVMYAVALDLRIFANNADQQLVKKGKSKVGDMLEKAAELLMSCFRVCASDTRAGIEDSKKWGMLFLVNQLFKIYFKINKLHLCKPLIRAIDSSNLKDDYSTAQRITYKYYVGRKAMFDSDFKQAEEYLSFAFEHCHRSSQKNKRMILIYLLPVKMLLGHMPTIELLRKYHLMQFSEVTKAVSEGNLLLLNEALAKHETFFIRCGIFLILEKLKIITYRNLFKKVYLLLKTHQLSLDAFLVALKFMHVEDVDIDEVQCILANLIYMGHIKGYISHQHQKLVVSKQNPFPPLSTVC
Assay: pull-down; GST-ZNHIT1 incubated with His-PCID2 protein, GST pulldown
Settings: both partners purified

B1: GST-ZNHIT1 (Zinc finger HIT-type containing 1) (natural protein, mouse, UniProt Q8R331 1-154, looked up)
chain: MVEKKPAVRSQDPGQRRVLDRAARQRRINRQLEALENDNFQDDPHAGLPQLGKRLPQFDDDADTGKKKKKTRGDHFKLRFRKNFQALLEEQNLSASEGPNYLTACAGPPSRPQRPFCAVCGFPSPYTCVSCGARYCTVRCLGTHQETRCLKWTV
notes: ZNHIT1 (Zinc finger HIT-type containing 1, p18^hamlet), mouse Znhit1 cloned into pGEX-6P-1; Vector pGEX-6P-1; also called GST-tagged ZNHIT1; p18^hamlet; source: E. coli, purified (Glutathione Sepharose 4B)
B1: binds.
